To fix the notation:
T1: Recombinant human OX40/His (human, UniProt P43489 29-216, limits assumed)
T1 construct: SPR analyte; also called human OX40 proteins; not shown: His tag
T1 sequence: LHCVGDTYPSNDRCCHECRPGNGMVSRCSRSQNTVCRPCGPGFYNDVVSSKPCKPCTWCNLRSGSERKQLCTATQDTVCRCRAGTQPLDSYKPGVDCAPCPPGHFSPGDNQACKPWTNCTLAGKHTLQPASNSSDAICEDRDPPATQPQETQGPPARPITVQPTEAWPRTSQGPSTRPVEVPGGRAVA

T2: Recombinant human OX40/His (UniProt P43489 29-216)
T2 chain: T1 sequence

T3: membrane-bound human OX40 (on human OX40-expressing cells) (human, UniProt P43489 29-277)
T3 construct: also called human OX40-expressing MJ cells; OX40+ HEK293-NFkB-luciferase reporter cells
T3 sequence: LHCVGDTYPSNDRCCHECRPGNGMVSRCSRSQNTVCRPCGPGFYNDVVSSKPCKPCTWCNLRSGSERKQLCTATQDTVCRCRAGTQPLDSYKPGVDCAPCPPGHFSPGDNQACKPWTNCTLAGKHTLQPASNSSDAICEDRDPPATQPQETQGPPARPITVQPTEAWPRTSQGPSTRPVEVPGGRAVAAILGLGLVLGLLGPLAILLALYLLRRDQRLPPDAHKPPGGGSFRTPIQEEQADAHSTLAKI

T4: human OX40 antigen (soluble, titrated in the ELISA of Example 1) (UniProt P43489 29-216)
T4 chain: T1 sequence

T5: mouse OX40 (mouse, UniProt P47741 20-211, limits assumed)
T5 construct: Capture on Ni-NTA implies a His tag; also called mouse OX40 antigen
T5 sequence (looked up): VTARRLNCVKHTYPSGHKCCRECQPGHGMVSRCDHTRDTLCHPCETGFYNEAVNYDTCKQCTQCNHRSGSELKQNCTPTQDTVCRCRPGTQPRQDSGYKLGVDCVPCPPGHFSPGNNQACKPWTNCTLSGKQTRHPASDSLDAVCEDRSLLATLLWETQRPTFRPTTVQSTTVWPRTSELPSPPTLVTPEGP

B1: 5-A8 variant anti-OX40 antibody (antibody, V domains shown)
VH: QVQLVQSGAEVKKPGASVKVSCKTSGYTFTGYYLHWVRQAPGQGLEWMGIINPSDGSTRNAQKFEGRVTMTRDTSTSTVYMELSSLSPEDTAVYYCARDLEYIGSGSLSWFDPWGQGTLVTVSS
VL: QSALTQPASVSGSPGQSITISCTGSSSDIGGYNSVSWYQQYPGKAPKLIIYDVNNRPSGVSNRFSGSKSGNTASLTISGLQAEDEADYYCSSYTFHTGLVYVFGTGTKVTVL
B2: 5-C8 variant anti-OX40 antibody (antibody, V domains shown)
VH: B1 VH
VL: B1 VL with F95H, H96N
B3: 5-F5 variant anti-OX40 antibody (antibody, V domains shown)
VH: B1 VH
VL: B1 VL with F95Y, H96D
B4: 5-A6 variant anti-OX40 antibody (antibody, V domains shown)
VH: B1 VH
VL: B1 VL with H96D
B5: 5-G8 variant anti-OX40 antibody (antibody, V domains shown)
VH: B1 VH
VL: B1 VL with F95Y, H96Y, G98E
B6: 5-H6 variant anti-OX40 antibody (antibody, V domains shown)
VH: B1 VH
VL: B1 VL with F95Y, H96D, T97N, G98D
B7: 2B4 wild type anti-OX40 antibody (antibody, V domains shown)
VH: B1 VH with V2M
VL: QPVLTQPASVSGSPGQSITISCTGTSSDLGAYDYVSWYQQQPGQAPKLIIYDVNNRPSGVSNRFSGSKSGNTASLTISGLQAEDEADYYCSSYTSSSTLVYVFGTGTKVTVL
notes: Fully human antibody of an IgG class, captured or detected through human Fc; the isotype control used was IgG1; also called 2B4 (WT); wild type 2B4

Changes are numbered by the printed parent chain.

The first assay has as its target T1, Recombinant human OX40/His. The assay is described as follows: SPR (Biacore T200), antibody captured by anti-human Fc, OX40/His as analyte, 1:1 model. The method, then: Kinetic interactions between antibodies and human OX40 proteins were measured at 25° C. using Biacore T200 surface plasmon resonance (GE Healthcare). Anti-human fragment crystallizable region (Fc region) antibody was immobilized on a CMS sensor chip to approximately 8000 resonance units (RU) using standard N-hydroxysuccinimide/N-Ethyl-N′-(3-dimethylaminopropyl) carbodiimide hydrochloride (NHS/EDC) coupling methodology. The anti-OX40 antibody (2 μg/mL) was captured for 60 seconds at a flow rate of 10 μL/minute. Recombinant human OX40/His was serially diluted in a running buffer of 0.01 M HEPES pH 7.4, 0.15 M NaCl, 3 mM EDTA, 0.05% v/v Surfactant P20 (HBS-EP+). All measurements were conducted in HBS-EP+ buffer with a flow rate of 30 μL/minute. A 1:1 (Langmuir) binding model was used to fit the data.
Background: SPR reads the build-up and loss of mass on a sensor chip optically.
As for B1, the dissociation constant Kd (usually the equilibrium constant for the complex coming apart) is below 5 nM.

As to B2, the Kd was below 5 nM.

As to B3, the Kd was below 5 nM.

For B4, the dissociation constant Kd is below 5 nM.

For the molecule B5, the Kd is below 5 nM.

Regarding B6, the Kd is below 5 nM.

The next assay has as its target T2, Recombinant human OX40/His. The assay is described as follows: SPR.
Consider B1, for which the Kd turned out to be 4.37 nM.

Take B2: the Kd was determined as 4.39 nM.

On to B3, for which the Kd amounted to 3.01 nM.

For the molecule B4, the Kd amounted to 2.41 nM.

Consider B7, for which the Kd worked out at 332 nM.

As to B5, the dissociation constant Kd was determined as 3.8 nM.

Turning to B6, the Kd was determined as 3.51 nM.

The target in the next assay is T3, membrane-bound human OX40 (on human …). The assay is described as follows: flow cytometry on human OX40-expressing MJ cells. A general note: Flow cytometry measures light scatter and fluorescence of single cells or particles in a stream.
For B7, the binding result is recorded as “binds”.

A further assay addresses T4, human OX40 antigen (soluble, titrated …). The assay is described as follows: ELISA, immobilized Ab. For orientation: In an ELISA, binding on a coated surface is turned into a signal by an enzyme label.
For B1, the IC50 (usually the concentration that inhibits the measured activity by half) turned out to be 0.0163 µg/mL.

In turn, B2 registered an IC50 of 0.00353 µg/mL.

Regarding B3, the IC50 was 0.0263 µg/mL.

On to B4, for which the IC50 was found to be 0.0117 µg/mL.

Consider B7, for which half-maximal inhibition (IC50) was put at 0.168 µg/mL.

In turn, B5 yielded a 50% inhibitory concentration (IC50) of 0.0254 µg/mL.

Molecule B6 showed a half-maximal inhibitory concentration (IC50) of 0.0275 µg/mL.

In another assay the target is T2, Recombinant human OX40/His. The assay is described as follows: SPR. The source holds these as a separate data set.
Take B7: the dissociation constant Kd worked out at 332 nM.

A further assay has as its target T5, mouse OX40. The assay is described as follows: ELISA, OX40 antigen captured on Ni-NTA plate, antibody at 1 ug/mL. The method, then:
Ni-NTA plate was captured with 50 ul per well of human, mouse, and rhesus OX40 antigen solutions at a concentration of 1 ug/ml in PBS and incubated 1 hour at room temperature. After washing the plate with 0.05% PBS/Tween, 1 ug/mL the human anti-OX40 antibodies in Blocker™ Casein in PBS (Thermo Fisher Catalog Number: 37528) were added with 50 ul per well and incubated for one hour at room temperature. The plate was washed again with 0.05% PBS/Tween and incubated with 50 ul of Jackson Immuno Research Peroxidase AffiniPure Goat Anti-Human IgG, Fcγ Fragment (Catalog Number: 109-035-098) for one hour at room temperature. After washing, the plate was developed with 1-Step™ Ultra TMB-ELISA Substrate Solution (Thermo Fisher Catalog Number: 34028). The plate was read in the FlexStation 3 at OD 450.
For B7, the binding result is recorded as “no binding (tested: 1 ug/mL)”.

For a further assay, the target named is human OX40/His (UniProt P43489). The assay is described as follows: SPR.
Take MOXR0916/RG7888: the dissociation constant Kd amounted to 3.2 nM.

For the origin of these results see patent US20190169302A1 (SORRENTO THERAPEUTICS, published 2019).
